Test results reported in publication PMC11086168, “Combining the Benefits of Biotin–Streptavidin Aptamer Immobilization with the Versatility of Ni-NTA Regeneration Strategies for SPR”.

What was measured:
[1] = molecular target: T1, 6xHis-streptavidin (His-SA) (UniProt P22629 25-183); assay: EMSA; no biotin; 1 µM 29mer; LSPR on Ni-NTA chip with His-SA capture; sample buffer PBS-T (1X PBS, 0.05% Tween 20); immobilization in PBS-T or PBS-I (1X PBS, 300 mM NaCl total, pH 8.0); 20; settings: protein: commercial; tags: 6xHis; chain copies: 4
T1 sequence (P22629 25-183): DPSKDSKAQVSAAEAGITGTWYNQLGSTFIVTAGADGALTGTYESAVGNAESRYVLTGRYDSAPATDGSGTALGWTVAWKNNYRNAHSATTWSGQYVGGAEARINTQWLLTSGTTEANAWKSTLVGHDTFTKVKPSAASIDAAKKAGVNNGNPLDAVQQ

thrombin [2] = molecular target: T2, thrombin (human plasma, UniProt P00734;P00734 328-363;364-622); assay: SPR (LSPR); Experiment 1; PBS-T; printed as KA from Hill fit (half-saturation, in nM); aptamer immobilized on His-SA/Ni-NTA; BSA present; LSPR on Ni-NTA chip with His-SA capture; sample buffer PBS-T (1X PBS, 0.05% Tween 20); immobilization in PBS-T or PBS-I (1X PBS, 300 mM NaCl total, pH 8.0); 20
thrombin [3] = molecular target: T2, thrombin; assay: SPR (LSPR); Experiment 7; surface immobilized in PBS-I; printed as KA from Hill fit; BSA present; LSPR on Ni-NTA chip with His-SA capture; sample buffer PBS-T (1X PBS, 0.05% Tween 20); immobilization in PBS-T or PBS-I (1X PBS, 300 mM NaCl total, pH 8.0); 20
[4] = molecular target: T1, 6xHis-streptavidin (His-SA); assay: EMSA; binding through 5' biotin; LSPR on Ni-NTA chip with His-SA capture; sample buffer PBS-T (1X PBS, 0.05% Tween 20); immobilization in PBS-T or PBS-I (1X PBS, 300 mM NaCl total, pH 8.0); 20; settings: protein: commercial; tags: 6xHis; chain copies: 4; label: 5' biotin
thrombin [5] = molecular target: T2, thrombin; assay: SPR (LSPR); Experiment 8; reused surface of Experiment 7, no new immobilization; printed as KA from Hill fit; BSA present; LSPR on Ni-NTA chip with His-SA capture; sample buffer PBS-T (1X PBS, 0.05% Tween 20); immobilization in PBS-T or PBS-I (1X PBS, 300 mM NaCl total, pH 8.0); 20

Binder	binding result [1]	Kd (thrombin [2]) [nM]	Kd (thrombin [3]) [nM]	binding result [4]	Kd (thrombin [5]) [nM]
AGTCCGTGGTAGGGCAGGTTGGGGTGACT (structured_DNA) [unlabeled 29mer]	no binding	–	–	–	–
AGTCCGTGGTAGGGCAGGTTGGGGTGACT (structured_DNA, 5' biotin (5Biosg)) [B-29mer (biotinylated thrombin-binding aptamer)]	–	31.2	18.6	binds	10.3
